Data reported in US20040126819A1.

What was measured:
[1] = target: GDNF receptors on E10 embryonic chick sympathetic neurons; assay: saturation binding of 125I-GDNF to E10 chick sympathetic neurons, 4 C, filtration
[2] = target: GDNF receptors on E10 embryonic chick sympathetic neurons; assay: steady-state saturation binding of 125I-GDNF to E10 embryonic chick sympathetic neurons, triplicates

B1: recombinant rat GDNF produced in Sf21 insect cells using a baculovirus expression system (ligand, UniProt Q07731 78-211, looked up)
chain: SPDKQAAALPRRERNRQAAAASPENSRGKGRRGQRGKNRGCVLTAIHLNVTDLGLGYETKEELIFRYCSGSCEAAETMYDKILKNLSRSRRLTSDKVGQACCRPVAFDDDLSFLDDSLVYHILRKHSAKRCGCI
modifications: labeled with Na-^125I by the chloramine-T method where used as tracer
Binder B1 has a Kd [1] of 0.4 nM and an EC50 (read off the curve) [2] of 400 pM.
